US20130330414A1

Molecular target: 8.3-TCR on 8.3-CD8+ T-cells of 8.3-TCR-transgenic NOD mice
Test: cell-based or functional assay

Sequence of IGRP206-214/K^d pMHC complex (P01902 22-305, one chain of several): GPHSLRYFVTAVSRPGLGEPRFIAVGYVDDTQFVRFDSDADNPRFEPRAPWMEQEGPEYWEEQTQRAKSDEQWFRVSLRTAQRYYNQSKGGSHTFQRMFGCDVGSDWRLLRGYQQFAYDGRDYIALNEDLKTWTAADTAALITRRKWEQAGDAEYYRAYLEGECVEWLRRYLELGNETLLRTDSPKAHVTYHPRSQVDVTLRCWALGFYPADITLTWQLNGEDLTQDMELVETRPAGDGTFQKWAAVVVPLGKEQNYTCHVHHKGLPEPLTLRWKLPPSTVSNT

IFNγ responses (ng/mL); NP IGRP-SFP-011411, Fe3O4 8 nm, pMHC valency 54, 5 × 10^11 NPs/mL: 2.3 ng/mL
IFNγ responses (ng/mL); NP IGRP-SFP-012011, Fe3O4 8 nm, pMHC valency 14, 5 × 10^11 NPs/mL: 0.2 ng/mL
IFNγ responses (ng/mL); NP IGRP-SFP-031511, Fe3O4 8 nm, pMHC valency 15, 5 × 10^11 NPs/mL: 0.15 ng/mL
IFNγ responses (ng/mL); NP IGRP-SFP-051211, Fe3O4 8 nm, pMHC valency 31, 5 × 10^11 NPs/mL: 0.7 ng/mL
IFNγ responses (ng/mL); NP IGRP-SFP-100711, Fe3O4 8 nm, pMHC valency 39, 5 × 10^11 NPs/mL: 0.9 ng/mL
IFNγ responses (ng/mL); NP IGRP-SFP-102912, Fe3O4 8 nm, pMHC valency 11, 5 × 10^11 NPs/mL: 0.4 ng/mL
IFNγ responses (ng/mL); NP IGRP-SFPM-110512, Fe3O4 8 nm, pMHC valency 8, 5 × 10^11 NPs/mL: 0.03 ng/mL
Substance: IGRP206-214/K^d pMHC complex (from UniProt Q9Z186 206-214; P01902 22-305) (peptide-MHC)
